{
  "source": "paper PMC9728176",
  "molecular_target": "T1, His6-Fur (Escherichia coli) (UniProt P0A9A9)",
  "T1 sequence": "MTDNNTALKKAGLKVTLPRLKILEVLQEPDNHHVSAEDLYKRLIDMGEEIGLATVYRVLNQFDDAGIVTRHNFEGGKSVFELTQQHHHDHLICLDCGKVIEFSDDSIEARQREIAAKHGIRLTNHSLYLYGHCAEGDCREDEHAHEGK",
  "assay": "EMSA",
  "conditions": "EMSA: 10 mM Tris-HCl pH 7.5, 50 mM KCl, 0.5 mM DTT, 0.05 mg/ml BSA, 4% glycerin, 1 mM MgCl2, 0.1 mM MnCl2, 50 ug/ml poly(dI-dC), 10 ng probe, temperature not …",
  "data": [
    {"sequence": "GCGATATCACCGGTATAAGGGGCCAGCAGTTCCGCAGGGTCGAACTCTGCCAGATCTGCCAGCGCAACGAAGTTTTGCACCACCTGAATATCGCCCTGCACTTCCAGCTCACCACTGCGAATCAGTGCGGTAAGCTGCTGGCGATCGCGAAGTTTCGGCAACACACTGGCGTAGGCGATAACGGTGCA (double strand) [Biotin-PesrE (Biotin-S1V3)]", "values": [
      {"measurement": "binding", "value": "binds"}
    ]}
  ]
}
